Source: patent publication US20190062386A1 (UNIVERSITY OF NORTH CAROLINA AT CHAPEL HILL, published 2019)

Molecular target: T1, Myc tagged TRPC3 (UniProt Q13507-3 1-848, limits assumed)
T1 construct: Expressed in HEK293T cells and tested in cell lysates; also called Myc-TRPC3
T1 sequence (looked up): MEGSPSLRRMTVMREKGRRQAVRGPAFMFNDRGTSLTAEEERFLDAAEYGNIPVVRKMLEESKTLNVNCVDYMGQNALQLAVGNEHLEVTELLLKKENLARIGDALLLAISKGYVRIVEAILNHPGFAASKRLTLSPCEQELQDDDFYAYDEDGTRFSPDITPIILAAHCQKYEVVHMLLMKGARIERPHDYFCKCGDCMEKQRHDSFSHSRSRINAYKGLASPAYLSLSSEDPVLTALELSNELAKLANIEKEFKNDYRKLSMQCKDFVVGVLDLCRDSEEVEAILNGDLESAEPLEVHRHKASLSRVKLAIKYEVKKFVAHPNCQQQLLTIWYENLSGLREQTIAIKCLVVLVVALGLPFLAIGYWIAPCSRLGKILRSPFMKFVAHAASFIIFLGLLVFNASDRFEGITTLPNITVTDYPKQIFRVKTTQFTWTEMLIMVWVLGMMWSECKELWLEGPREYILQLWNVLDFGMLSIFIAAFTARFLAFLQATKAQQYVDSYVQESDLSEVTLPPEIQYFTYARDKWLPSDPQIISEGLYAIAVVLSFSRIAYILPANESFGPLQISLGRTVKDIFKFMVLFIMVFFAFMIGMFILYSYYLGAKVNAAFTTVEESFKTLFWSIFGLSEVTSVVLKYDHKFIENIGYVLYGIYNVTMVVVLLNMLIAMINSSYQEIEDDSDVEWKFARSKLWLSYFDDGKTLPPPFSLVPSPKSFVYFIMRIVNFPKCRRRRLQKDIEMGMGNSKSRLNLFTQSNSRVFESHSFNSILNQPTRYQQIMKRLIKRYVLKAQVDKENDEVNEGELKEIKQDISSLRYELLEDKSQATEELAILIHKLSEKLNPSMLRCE
Assay: co-immunoprecipitation from lysates of HEK293T cells cotransfected with V5-SPLUNC1 and Myc-TRPC3
Method: Immunoprecipitation analysis was performed using cell lysates from HEK293T cells cotransfected with V5-SPLUNC1 and Myc-TRPC3. Data represents an n=3 blots.
Antibodies, immunoprecipitation, and immunoblot analysis: Rabbit anti-Orai1, anti-HA epitope (Santa Cruz), anti-GFP, anti-phospho-myosin light chain, anti-total myosin light chain, anti-GAPDH (glyceraldehyde-3-phosphate dehydrogenase) (Cell Signaling Technology); mouse anti-V5 epitope (Life Technologies), were purchased from commercial sources. To detect protein expression in total cell lysates, cells were lysed in Pierce® IP lysis buffer with 25 mM Tris-HCl pH 7.4, 150 mM NaCl, 1% NP-40, 1 mM EDTA, 5% glycerol, followed by SDS-polyacrylamide electrophoresis and immunoblot.

B1: V5-SPLUNC1 (other, not shown: small tags and cut ends)
chain: QFGGLPVPLDQTLPLNVNPALPLSPTGLAGSLTNALSNGLLSGGLLGILENLPLLDILKPGGGTSGGLLGGLLGKVTSVIPGLNNIIDIKVTDPQLLELGLVQSPDGHRLYVTIPLGIKLQVNTPLVGASLLRLAVKLDITAEILAVRDKQERIHLVLGDCTHSPGSLQISLLDGLGPLPIQGLLDSLTGILNKVLPELVQGNVCPLVNEVLRGLDITLVHDIVNMLIHGLQFVIKV
notes: Expressed in HEK293T cells and tested in cell lysates; The tag is placed first only because the name is printed that way; also called pcDNA3.1(+)-V5-SPLUNC1
binding result: no binding
